Experimental data taken from US9006178 (Novo Nordisk, dated 2015).
*1 amine or outer side, *2 acyl side, *3 side chain or, on linkers, in order; H or OH if unused. Where no end group is shown, it is not given here. Side-chain parts run from the residue outwards. [ ]: non-standard residue; d: D form. The star is where a group is joined. Dodecanoyl(12-OPh(4-COOH)) = O=C(O)c1ccc(OCCCCCCCCCCCC(=O)*)cc1; Decanoyl(10-(4-HOOC-PhO)) = O=C(O)c1ccc(OCCCCCCCCCC(=O)*)cc1; C18 diacid = O=C(O)CCCCCCCCCCCCCCCCC(=O)*; C16 diacid = O=C(O)CCCCCCCCCCCCCCC(=O)*; γGlu = O=C(O)[C@H](CCC(=O)[*:2])N[*:1]; Desaminohistidyl = O=C(CCc1c[nH]cn1)*; εLys = N[C@@H](CCCCN[*:1])C(=O)[*:2]; AEEA = NCCOCCOCC(=O)O; Aib = CC(C)(N)C(=O)O

B1: N^ε18-[(2S)-2-amino-6-[[2-[2-[2-(15-carboxypentadecanoylamino)ethoxy]ethoxy]acetyl]amino]hexanoyl], … (peptide)
peptide: H[Aib]EGTFTSDVSK([εLys-AEEA-C16 diacid])YLEGQAAK([εLys-AEEA-C16 diacid])EFIAWLVQGRG
notes: Double-acylated GLP-1 analogue; positions are counted with His as no
B2: N^ε18-[(2S)-2-amino-6-[[2-[2-[2-[[(4S)-4-carboxy-4-(15-carboxypentadecanoylamino)butanoyl]amino]ethoxy]ethoxy]acetyl]amino]hexanoyl], … (peptide)
peptide: H[Aib]EGTFTSDVSK([εLys-AEEA-γGlu-C16 diacid])YLEGQAAK([εLys-AEEA-γGlu-C16 diacid])EFIAWLVQGRG
notes: as for B1
B3: N^ε18-[(2S)-2-amino-6-[[(2S)-2-amino-6-[[(4S)-4-carboxy-4-[10-(4-carboxyphenoxyl)decanoylamino]butanoyl]amino]hexanoyl]amino]hexanoyl], … (peptide)
peptide: H[Aib]EGTFTSDVSK([εLys-εLys-γGlu-Decanoyl(10-(4-HOOC-PhO))])YLEGQAAK([εLys-εLys-γGlu-Decanoyl(10-(4-HOOC-PhO))])EFIAWLVQGRG
notes: as for B1
B4: N^ε18-[(2S)-2-amino-6-[[(2S)-2-amino-6-[[(4S)-4-carboxy-4-(15-carboxypentadecanoylamino)butanoyl]amino]hexanoyl]amino]hexanoyl], … (peptide)
peptide: H[Aib]EGTFTSDVSK([εLys-εLys-γGlu-C16 diacid])YLEGQAAK([εLys-εLys-γGlu-C16 diacid])EFIAWLVQGRG
notes: as for B1
B5: N^ε18-[(2S)-2-amino-6-[[(2S)-2-amino-6-[[(4S)-4-carboxy-4-[12-(4-carboxyphenoxy)dodecanoylamino]butanoyl]amino]hexanoyl]amino]hexanoyl], … (peptide)
peptide: H[Aib]EGTFTSDVSK([εLys-εLys-γGlu-Dodecanoyl(12-OPh(4-COOH))])YLEGQAAK([εLys-εLys-γGlu-Dodecanoyl(12-OPh(4-COOH))])EFIAWLVQGRG
notes: as for B1
B6: N^ε18-[2-[2-[2-[[(2S)-2-amino-6-[[2-[2-[2-[[(4S)-4-carboxy-4-[10-(4-carboxyphenoxyl)decanoylamino]butanoyl]amino]ethoxy]ethoxy]acetyl]amino]hexanoyl]amino]ethox … (peptide)
peptide: [Desaminohistidyl]AEGTFTSDVSK([AEEA-εLys-AEEA-γGlu-Decanoyl(10-(4-HOOC-PhO))])YLEEQAVREFIAK([AEEA-εLys-AEEA-γGlu-Decanoyl(10-(4-HOOC-PhO))])LVRGRG
notes: Double-acylated GLP-1 analogue; positions are counted with residue 1 of the entry as no
B7: N^ε18-[(2S)-2-amino-6-[[2-[2-[2-[[2-[2-[2-[[(4S)-4-carboxy-4-[12-(4-carboxyphenoxy)dodecanoylamino]butanoyl]amino]ethoxy]ethoxy]acetyl]amino]ethoxy]ethoxy]acety … (peptide)
peptide: H[Aib]EGTFTSDVSK([εLys-AEEA-AEEA-γGlu-Dodecanoyl(12-OPh(4-COOH))])YLEGQAAK([εLys-AEEA-AEEA-γGlu-Dodecanoyl(12-OPh(4-COOH))])EFIAWLVQGRG
notes: as for B1
B8: N^ε18-[(2S)-2-amino-6-[[(4S)-4-carboxy-4-(15-carboxypentadecanoylamino)butanoyl]amino]hexanoyl], … (peptide)
peptide: H[Aib]EGTFTSDVSK([εLys-γGlu-C16 diacid])YLEGQAAK([εLys-γGlu-C16 diacid])EFIAWLVQGRG
notes: as for B1
B9: N^ε18-[2-[2-[2-[[(2S)-2-amino-6-[[2-[2-[2-[[(4S)-4-carboxy-4-[10-(4-carboxyphenoxyl)decanoylamino]butanoyl]amino]ethoxy]ethoxy]acetyl]amino]hexanoyl]amino]ethox … (peptide)
peptide: [Desaminohistidyl][Aib]EGTFTSDVSK([AEEA-εLys-AEEA-γGlu-Decanoyl(10-(4-HOOC-PhO))])YLEEQAAK([AEEA-εLys-AEEA-γGlu-Decanoyl(10-(4-HOOC-PhO))])EFIAWLVQGRG
notes: as for B6
B10: N^ε18-[(2S)-2-amino-6-[[(2S)-2-amino-6-[[(4S)-4-carboxy-4-(17-carboxyheptadecanoylamino)butanoyl]amino]hexanoyl]amino]hexanoyl], … (peptide)
peptide: H[Aib]EGTFTSDVSK([εLys-εLys-γGlu-C18 diacid])YLEGQAAK([εLys-εLys-γGlu-C18 diacid])EFIAWLVQGRG
notes: as for B1

The molecules below were run against T1, human GLP-1 receptor (human, UniProt P43220 24-463) (assay: SPA displacement of [125I]-GLP-1(7-36)NH2 from human GLP-1 receptor membranes, low albumin (0.005% HSA)).
T1 construct: whole, on cells; also called hGLP-1
Protocol: (§1) 25 ul (microliter) of test compounds are added to Optiplate. HSA ("high albumin" experiment containing 2% HSA), or buffer ("low albumin" experiment containing 0.005% HSA), was added (50 ul). 5-10 ug protein/sample was added (50 ul) corresponding to 0.1-0.2 mg protein/ml (to be preferably optimised for each membrane preparation). SPA-particles (Wheatgerm agglutinin SPA beads, Perkin Elmer, #RPNQ0001) were added in an amount of 0.5 mg/well (50 ul). […] The plates were sealed with PlateSealer and incubated for 120 minutes at 30° C. while shaking. The plates were centrifuged (1500 rpm, 10 min) and counted in Topcounter.
“N^ε18-[(2S)-2-amino-6-[[(4S)-4-carboxy-4-(13-carboxytridecanoylamino)butanoyl]amino]hexanoyl], N^ε26-[(2S)-2-amino-6-[[(4S)-4-carboxy-4-(13-carboxytridecanoylamino)butanoyl]amino]hexanoyl]-[Lys^8,Glu^22,Gln^34] (SEQ ID NO: 11)-GLP-1-(7-37)-peptide” was tested, and the IC50 was < 35 nM.
With “N^ε18-[(2S)-2-amino-6-[[(2S)-2-amino-6-[[(4S)-4-carboxy-4-[8-[10-(4-carboxyphenoxyl)decanoylamino]octanoylamino]butanoyl]amino]hexanoyl]amino]hexanoyl], N^ε26-[(2S)-2-amino-6-[[(2S)-2-amino-6-[[(4S)-4-carboxy-4-[8-[10-(4-carboxyphenoxyl)decanoylamino]octanoylamino]butanoyl]amino]hexanoyl]amino]hexanoyl]-[Aib^8,Lys^18,Glu^22,Gln^34] (SEQ ID NO: 9)-GLP-1-(7-37)-peptide” the IC50 was < 35 nM.
In the case of “N^ε18-[(2S)-2-amino-6-[[2-[2-[2-[[(4S)-4-carboxy-4-(13-carboxytridecanoylamino)butanoyl]amino]ethoxy]ethoxy]acetyl]amino]hexanoyl], N^ε26-[(2S)-2-amino-6-[[2-[2-[2-[[(4S)-4-carboxy-4-(13-carboxytridecanoylamino)butanoyl]amino]ethoxy]ethoxy]acetyl]amino]hexanoyl]-[Lys^18,Glu^22,Gln^34] (SEQ ID NO: 11)-GLP-1-(7-37)-peptide”, the IC50 is reported as < 35 nM.
In the case of “N^ε18-[(2S)-2-amino-6-[[(2S)-2-amino-6-[[(4S)-4-carboxy-4-[10-(4-carboxyphenoxyl)decanoylamino]butanoyl]amino]hexanoyl]amino]hexanoyl], N^ε26-[(2S)-2-amino-6-[[(2S)-2-amino-6-[[(4S)-4-carboxy-4-[10-(4-carboxyphenoxyl)decanoylamino]butanoyl]amino]hexanoyl]amino]hexanoyl]-[Aib^8,Lys^18,Glu^22,Gln^34] (SEQ ID NO: 9)-GLP-1-(7-37)-peptide”, the IC50 is reported as < 35 nM.
In the case of B1, the IC50 is reported as < 35 nM.
B2 was tested, and the IC50 was < 35 nM.
For B3, the IC50 was < 35 nM.
In the case of H[Aib]EGTFTSDVSK([εLys-εLys-γGlu-Decanoyl(10-(4-HOOC-PhO))])QLEEQAAK([εLys-εLys-γGlu-Decanoyl(10-(4-HOOC-PhO))])EFIAWLVQGRG, the IC50 is reported as < 35 nM.
B4 was tested, and the IC50 was < 35 nM.
With B5 the IC50 was < 35 nM.
In the case of B6, the IC50 is reported as < 35 nM.
With B7 the IC50 was < 35 nM.
In the case of B8, the IC50 is reported as < 35 nM.
B9 was tested, and the IC50 was < 35 nM.
With B10 the IC50 was < 35 nM.

What follows are molecules tested against T1, human GLP-1 receptor (assay: SPA displacement of [125I]-GLP-1(7-36)NH2 from human GLP-1 receptor membranes; IC50 at 2.0% HSA divided by IC50 at 0.005% HSA).
Protocol: as §1
In the case of B1, the “ratio [(IC50/nM) high HSA]/[(IC50/nM) low HSA]” value (“ratio” for short) is reported as > 10.
With B2 the “ratio” value was > 10.
For B3, the “ratio” value was > 10.
H[Aib]EGTFTSDVSK([εLys-εLys-γGlu-Decanoyl(10-(4-HOOC-PhO))])QLEEQAAK([εLys-εLys-γGlu-Decanoyl(10-(4-HOOC-PhO))])EFIAWLVQGRG was tested, and the “ratio” value was > 10.
With B4 the “ratio” value was > 10.
B5 was tested, and the “ratio” value was > 10.
In the case of B6, the “ratio” value is reported as > 10.
In the case of B7, the “ratio” value is reported as > 10.
For B8, the “ratio” value was > 10.
In the case of B9, the “ratio” value is reported as > 10.
For B10, the “ratio” value was > 10.
